From publication PMC5999394, “Design principles of a microtubule polymerase” (eLife, 2018)

Columns and labels:
[1] = target: T1, wild-type yeast microtubules (polymerized wild-type yeast αβ-tubulin) (S. cerevisiae, UniProt P09733 1-447; P02557 1-457); assay: TIRF microscopy, fluorescence intensity of the Stu2-eGFP spot on the growing microtubule end; end intensity dynamic assay; 5-300 nM Stu2-eGFP (titration, hyperbolic fit; apparent) or 200 nM variant; 0.8 μM wild-type yeast tubulin; 30°C; details: both partners purified
T1 construct: Tub1p (yeast α-tubulin), S. cerevisiae; Tub2p (yeast β-tubulin), S. cerevisiae; Polymer of m2; also called microtubule lattice; microtubule end

[2] = target: T1, wild-type yeast microtubules …; assay: single-molecule TIRF microscopy, residence time on the growing microtubule end; 5 nM Stu2-eGFP variant with 1-1.5 µM unlabeled wild-type yeast tubulin; 100 ms streaming; one-phase exponential fit of the dwell times; 30°C; details: both partners purified
[3] = target: T2, β:T238A yeast microtubules (polymerized Tub2:T238A αβ-tubulin) (S. cerevisiae, UniProt P09733 1-447; P02557 1-457, T238A); assay: TIRF microscopy of Stu2-eGFP on dynamic microtubules (kymographs); axoneme-seeded unlabeled dynamic yeast microtubules on the cover slip; Stu2-eGFP variant (100-200 nM) with 0.5-0.8 μM unpolymerized yeast tubulin in imaging buffer (1X PEM, 50 µM GTP, 0.1 mg/mL BSA, antifade); 30°C; details: both partners purified
T2 construct: Tub1p (yeast α-tubulin), S. cerevisiae; Tub2p (yeast β-tubulin), S. cerevisiae; also called β:T238A microtubules; mutant microtubules

[4] = target: the molecule itself; assay: single-molecule photobleaching (TIRF); fluorescence intensity trace of stationary Stu2-eGFP; steps of photobleaching counted
[5] = target: T3, plus-end blocked yeast αβ-tubulin (β:T175R,V179R) (S. cerevisiae, UniProt P09733 1-447; P02557 1-457, T175R | V179R); assay: TIRF microscopy of Stu2-eGFP on stabilized microtubules; GTPγS-stabilized wild-type yeast microtubules held on the cover slip by His-Tag antibody; 100 nM Stu2-eGFP flowed in without or with 1 μM unpolymerized tubulin (wild type or mutant; mixed on ice for 10 min); imaging buffer; 30°C; details: both partners purified
T3 construct: Tub1p (yeast α-tubulin), S. cerevisiae; Tub2p (yeast β-tubulin), S. cerevisiae; also called LR1

[6] = target: T4, minus-end blocked yeast αβ-tubulin (α:T350E) (S. cerevisiae, UniProt P09733 1-447; P02557 1-457, T350E); assay: as above; details: both partners purified
T4 construct: Tub1p (yeast α-tubulin), S. cerevisiae; Tub2p (yeast β-tubulin), S. cerevisiae; also called T350E α-tubulin

[7] = target: T3, plus-end blocked yeast αβ-tubulin …; assay: AUC; sedimentation velocity, 50,000 rpm, 20°C, absorbance at 229 nm; RB100 (25 mM Tris pH 7.5, 100 mM NaCl, 1 mM MgCl2, 1 mM EGTA) with 20 µM GTP; 0.3 µM tubulin with 0.1-3 µM TOG1-tail; isotherms fitted with a 1:1 effective-particle model; details: both partners purified
[8] = target: T5, wild-type yeast αβ-tubulin (unpolymerized) (S. cerevisiae, UniProt P09733 1-447; P02557 1-457); assay: SEC; gel filtration on Shodex KW-803 in BRB80 (80 mM PIPES pH 6.9, 1 mM MgCl2, 1 mM EGTA) with 50 μM GTP; 1 μM TOG1-tail and 1 μM tubulin, alone or mixed, equilibrated on ice for 20 min; details: both partners purified
T5 construct: Tub1p (yeast α-tubulin), S. cerevisiae; Tub2p (yeast β-tubulin), S. cerevisiae; also called WT tubulin; unpolymerized tubulin

[9] = target: T6, lateral-interface mutant yeast αβ-tubulin (α:H284A) (S. cerevisiae, UniProt P09733 1-447; P02557 1-457, H284A); assay: as above; details: both partners purified
T6 construct: Tub1p (yeast α-tubulin), S. cerevisiae; Tub2p (yeast β-tubulin), S. cerevisiae; also called Tub1-H284A; Tub1:H284A

[10] = target: T7, side-blocked yeast αβ-tubulin (β:F281A) (S. cerevisiae, UniProt P09733 1-447; P02557 1-457, F281A); assay: as above; details: both partners purified
T7 construct: Tub1p (yeast α-tubulin), S. cerevisiae; Tub2p (yeast β-tubulin), S. cerevisiae; also called Tub2:F281A

Binder	EC50 [1]	characteristic residence time on the growing microtubule end [2]	binding result [3]	stoichiometry N [4]	binding result [5]	binding result [6]	binding result [7]	binding result [8]	binding result [9]	binding result [10]
wild-type Stu2-eGFP (Stu2 residues 1–888, full-length; dimer) (natural protein, S. cerevisiae, UniProt P46675 1-888, looked up, Stu2 (Stu2p), S. cerevisiae, residues 1-888; also called Stu2p; WT; source: E. coli Arctic Express, purified (His60 Superflow, Strep-Tactin); not shown: eGFP, C-terminal, kept) MSGEEEVDYTTLPLEERLTYKLWKARLEAYKELNQLFRNSVGDISRDDNIQIYWRDPTLFAQYITDSNVVAQEQAIVALNSLIDAFASSSLKNAHNITLISTWTPLLVEKGLTSSRATTKTQSMSCILSLCGLDTSITQSVELVIPFFEKKLPKLIAAAANCVYELMAAFGLTNVNVQTFLPELLKHVPQLAGHGDRNVRSQTMNLIVEIYKVTGNNSDLLEEILFKKLKPIQVKDLHKLFAKVGDEPSSSKMLFEWEKRELEKKRSQEEEARKRKSILSNDEGEYQIDKDGDTLMGMETDMPPSKQQSGVQIDTFSMLPEETILDKLPKDFQERITSSKWKDRVEALEEFWDSVLSQTKKLKSTSQNYSNLLGIYGHIIQKDANIQAVALAAQSVELICDKLKTPGFSKDYVSLVFTPLLDRTKEKKPSVIEAIRKALLTICKYYDPLASSGRNEDMLKDILEHMKHKTPQIRMECTQLFNASMKEEKDGYSTLQRYLKDEVVPIVIQIVNDTQPAIRTIGFESFAILIKIFGMNTFVKTLEHLDNLKRKKIEETVKTLPNFSIASGSTHSTIETNKQTGPMENKFLLKKSSVLPSKRVASSPLRNDNKSKVNPIGSVASASKPSMVAANNKSRVLLTSKSLATPKNVVANSTDKNEKLIEEYKYRLQKLQNDEMIWTKERQSLLEKMNNTENYKIEMIKENEMLREQLKEAQSKLNEKNIQLRSKEIDVNKLSDRVLSLENELRNMEIELDRNKKRNDTNLQSMGTISSYSIPSSTVSSNYGVKSLSSALPFKEEEDVRRKEDVNYERRSSESIGDLPHRVNSLNIRPYRKNGTGVSSVSDDLDIDFNDSFASEESYKRAAAVTSTLKARIEKMKAKSRREGTTRT	19 nM	2.2 s	binds	2	binds	binds				
Stu2 TOG1 domain ('TOG1-tail', 1–317) (domain or fragment, S. cerevisiae, UniProt P46675 1-317, looked up, Stu2 (Stu2p), S. cerevisiae, TOG1 domain with tail, residues 1-317; source: expression and purification previously described (Ayaz et al., 2012, 2014)) MSGEEEVDYTTLPLEERLTYKLWKARLEAYKELNQLFRNSVGDISRDDNIQIYWRDPTLFAQYITDSNVVAQEQAIVALNSLIDAFASSSLKNAHNITLISTWTPLLVEKGLTSSRATTKTQSMSCILSLCGLDTSITQSVELVIPFFEKKLPKLIAAAANCVYELMAAFGLTNVNVQTFLPELLKHVPQLAGHGDRNVRSQTMNLIVEIYKVTGNNSDLLEEILFKKLKPIQVKDLHKLFAKVGDEPSSSKMLFEWEKRELEKKRSQEEEARKRKSILSNDEGEYQIDKDGDTLMGMETDMPPSKQQSGVQIDTFS							binds	binds	binds	binds
